Test results reported in article doi:10.1101/686790.

T1: GST-HP1γ-Hinge (UniProt P23198 77-111)
T1 chain: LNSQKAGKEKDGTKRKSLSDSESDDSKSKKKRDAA


Legend:
GST-HP1γ-Hinge = target: T1, GST-HP1γ-Hinge; assay: EMSA
GST-HP1γ = GST-HP1γ (UniProt P23198 11-183); assay: EMSA
Chain of GST-HP1γ (P23198 11-183): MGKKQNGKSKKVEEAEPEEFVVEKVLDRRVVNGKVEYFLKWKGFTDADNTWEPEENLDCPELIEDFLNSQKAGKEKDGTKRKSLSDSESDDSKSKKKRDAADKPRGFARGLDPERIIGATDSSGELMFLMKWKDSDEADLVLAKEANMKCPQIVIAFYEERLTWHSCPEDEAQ

Binder	binding result (GST-HP1γ-Hinge)	binding result (GST-HP1γ)
GUGAGCUCCAGGCCAGUGAGAGACCCUGUCUCAA (ssRNA) [GAGAGA]	binds	–
CGCUUCGGGCUCGCCGCUCGCUUCC (ssRNA) [Scrambled]	no binding	–
UCUGGCACACAGCCACACGCUCAC (ssRNA) [CACACA]	binds	binds
